Here are results for two molecules from patent US12258605B2, “Alkane oxidation by modified hydroxylases” (The California Institute of Technology, priority 2005, dated 2025).

A short description of one series: Activity on palmitate. Type of series: biochemical. As for the experimental part: To evaluate the fate of the enzyme's original function, P450PMO activity was tested on the long-chain fatty acids laurate and palmitate.
Series [1] is described as follows: Halomethane reactions (formaldehyde, PFBHA, GC-ECD): iodomethane. Format: biochemical. The following applies: formaldehyde formation. As for the experimental part:
Halomethane reactions: Reactions with chloromethane, bromomethane, and iodomethane were carried out in 1 mL-scale using halomethane-saturated buffer (100 mM phosphate pH 8.0) and 50-500 nM purified protein. 900 μL buffer were added with protein, incubated for 15 seconds, and then added with 100 μL NADPH regeneration solution (100 units/mL IDH, 70 mg/mL isocitrate, 1.5 mg/ml NADP+). Solution were sealed and stirred for 30 minutes at 25° C. To reduce background levels of formaldehyde to a minimum, buffers were prepared using HPLC-grade water and autoclaved twice prior to use. Formaldehyde concentration in the reaction solutions was determined through derivatization with o-(2,3,4,5,6-pentafluorobenzyl)hydroxylamine hydrochloride (PFBHA) and gas chromatography. […] Organic phase was removed, diluted 1/100 v/v, and analyzed on a Shimadzu GC-17A gas chromatograph. […] Quantification was carried out using a calibration curve and solutions at known concentration of formaldehyde. […]
Along with activity on propane, P450PMO also hydroxylates ethane (TTN˜2,500), despite ethane's higher C—H bond energy (101.0 kcal mol^−1 versus 98.6 kcal mol^−1 for propane). […] Reactions with purified P450 variants and the halomethanes were analyzed for formaldehyde formation (FIG. 42). […] Activity on chloromethane was detected at lower levels (0.5-1% of propane activity) and in fewer P450 variants. […]

The conditions of series [2]: palmitate; cited from earlier work.

B1: P450PMO: P450 BM-3 variant, SEQ ID NO:125; 7-7 plus G443A and D698G; propane monooxygenase (protein)
chain: TIKEMPQPKTFGELKNLPLLNTDKPVQALMKIADELGEIFKFEAPGCVTRYISSQRLIKEACDESRFDKNLSQELKFFRDFGGDGLFTSWTHEINWKKAHNILLPSFSQQAMKGYHAMMVDIAVQLVQKWERLNADEHIEVSEDMTRLTLDTIGLCGFNYRFNSFYRDQPHPFIISMVRALDEVMNKPQRANPDDPAYDENKRQCQEDIKVMNDLVDKIIADRKARGEQSDDLLTQMLNGKDPETGEPLDDGNISYQIITFLIAGHETTSGLLSFALYFLVKNPHVLQKVVEEAARVLVDPVPSYKQVKQLKYVGMVLNEALRLWPTFPAFSLYAKEDTVLGGEYPLEKGDEVMVLIPQLHRDKTVWGDDVEEFRPERFENPSAIPQHAFKPFGNGQRACIGQQFALHEATLVLGMMLKHFDFEDHTNYELDIKETLTLKPEAFVVKAKSKKIPLGGIPSPSTGQSAKKVRKKAENAHNTPLLVLYGSNMGTAEGTARDLADIAMSKGFAPQVATLDSHAGNLPREGAVLIVTASYNGHPPDNAKQFVDWLDQASADEVKGVRYSVFGCGDKNWATTYQKVPAFIDETLAAKGAENIADRGEADASDDFEGTYEEWREHMWSDVAAYFNLDIENSEDNKSTLSLQFVDSAADMPLAKMHGAFSTNVVASKELQQPGSARSTRHLEIELPKEASYQEGGHLGVIPRNYEGTVNRVTARFGLDASQQIRLEAEEEKLAHLPLAKTVSVEELLQYVELQDPVTRTQLRAMAAKTVCPPHKVELEALLEKQAYKEQVLAKRLTMLELLEKYPACEMKFSEFIALLPSIRPRYYSISSSPRVDEKQASITVSVVSGEAWSGYGEYKGIASNYLAELQEGDTITCFISTPQSEFTLPKDPETPLIMVGPGTGVAPFRGFVQARKQLKEQGQSLGEAHLYFGCRSPHEDYLYQEELENAQSEGIITLHTAFSRMPNQPKTYVQHVMEQDGKKLIELLDQGAHFYICGDGSQMAPAVEATLMKSYADVHQVSEADARLWLQQLEEKGRYAKDVWAG
modifications: Mutant P450PMO protein sequence
notes: 7-7 plus G443A and D698G; propane monooxygenase
B1: the “hydroxylated fatty acids formed” value in “Activity on palmitate” is on record as “no detectable amounts of hydroxylated fatty acids”. In series [1], the iodomethane dehalogenase activity result was “could be detected”.

B2: Wild-type BM-3: wild-type cytochrome P450 BM-3 from Bacillus megaterium, SEQ ID NO:1 (protein, listed as Bacillus megaterium)
chain: TIKEMPQPKTFGELKNLPLLNTDKPVQALMKIADELGEIFKFEAPGRVTRYLSSQRLIKEACDESRFDKNLSQALKFVRDFAGDGLFTSWTHEKNWKKAHNILLPSFSQQAMKGYHAMMVDIAVQLVQKWERLNADEHIEVPEDMTRLTLDTIGLCGFNYRFNSFYRDQPHPFITSMVRALDEAMNKLQRANPDDPAYDENKRQFQEDIKVMNDLVDKIIADRKASGEQSDDLLTHMLNGKDPETGEPLDDENIRYQIITFLIAGHETTSGLLSFALYFLVKNPHVLQKAAEEAARVLVDPVPSYKQVKQLKYVGMVLNEALRLWPTAPAFSLYAKEDTVLGGEYPLEKGDELMVLIPQLHRDKTIWGDDVEEFRPERFENPSAIPQHAFKPFGNGQRACIGQQFALHEATLVLGMMLKHFDFEDHTNYELDIKETLTLKPEGFVVKAKSKKIPLGGIPSPSTEQSAKKVRKKAENAHNTPLLVLYGSNMGTAEGTARDLADIAMSKGFAPQVATLDSHAGNLPREGAVLIVTASYNGHPPDNAKQFVDWLDQASADEVKGVRYSVFGCGDKNWATTYQKVPAFIDETLAAKGAENIADRGEADASDDFEGTYEEWREHMWSDVAAYFNLDIENSEDNKSTLSLQFVDSAADMPLAKMHGAFSTNVVASKELQQPGSARSTRHLEIELPKEASYQEGDHLGVIPRNYEGIVNRVTARFGLDASQQIRLEAEEEKLAHLPLAKTVSVEELLQYVELQDPVTRTQLRAMAAKTVCPPHKVELEALLEKQAYKEQVLAKRLTMLELLEKYPACEMKFSEFIALLPSIRPRYYSISSSPRVDEKQASITVSVVSGEAWSGYGEYKGIASNYLAELQEGDTITCFISTPQSEFTLPKDPETPLIMVGPGTGVAPFRGFVQARKQLKEQGQSLGEAHLYFGCRSPHEDYLYQEELENAQSEGIITLHTAFSRMPNQPKTYVQHVMEQDGKKLIELLDQGAHFYICGDGSQMAPAVEATLMKSYADVHQVSEADARLWLQQLEEKGRYAKDVWAG
Consider B2, for which, in series [2], the Coupling efficiency is recorded as 93% and the catalytic efficiency was 6e+07 M⁻¹ s⁻¹.
